One block for each binder: values may come before it. No end group written: not given here.
Legend:
[1] = molecular target: full-length ZO1 with C-terminal mEGFP (UniProt Q07157 1-1748); experiment: client partitioning into phase-separated droplets
FCS molecular brightness = molecular target: the molecule itself; experiment: FCS molecular brightness

Sequence of full-length ZO1 with C-terminal mEGFP (Q07157 whole entry): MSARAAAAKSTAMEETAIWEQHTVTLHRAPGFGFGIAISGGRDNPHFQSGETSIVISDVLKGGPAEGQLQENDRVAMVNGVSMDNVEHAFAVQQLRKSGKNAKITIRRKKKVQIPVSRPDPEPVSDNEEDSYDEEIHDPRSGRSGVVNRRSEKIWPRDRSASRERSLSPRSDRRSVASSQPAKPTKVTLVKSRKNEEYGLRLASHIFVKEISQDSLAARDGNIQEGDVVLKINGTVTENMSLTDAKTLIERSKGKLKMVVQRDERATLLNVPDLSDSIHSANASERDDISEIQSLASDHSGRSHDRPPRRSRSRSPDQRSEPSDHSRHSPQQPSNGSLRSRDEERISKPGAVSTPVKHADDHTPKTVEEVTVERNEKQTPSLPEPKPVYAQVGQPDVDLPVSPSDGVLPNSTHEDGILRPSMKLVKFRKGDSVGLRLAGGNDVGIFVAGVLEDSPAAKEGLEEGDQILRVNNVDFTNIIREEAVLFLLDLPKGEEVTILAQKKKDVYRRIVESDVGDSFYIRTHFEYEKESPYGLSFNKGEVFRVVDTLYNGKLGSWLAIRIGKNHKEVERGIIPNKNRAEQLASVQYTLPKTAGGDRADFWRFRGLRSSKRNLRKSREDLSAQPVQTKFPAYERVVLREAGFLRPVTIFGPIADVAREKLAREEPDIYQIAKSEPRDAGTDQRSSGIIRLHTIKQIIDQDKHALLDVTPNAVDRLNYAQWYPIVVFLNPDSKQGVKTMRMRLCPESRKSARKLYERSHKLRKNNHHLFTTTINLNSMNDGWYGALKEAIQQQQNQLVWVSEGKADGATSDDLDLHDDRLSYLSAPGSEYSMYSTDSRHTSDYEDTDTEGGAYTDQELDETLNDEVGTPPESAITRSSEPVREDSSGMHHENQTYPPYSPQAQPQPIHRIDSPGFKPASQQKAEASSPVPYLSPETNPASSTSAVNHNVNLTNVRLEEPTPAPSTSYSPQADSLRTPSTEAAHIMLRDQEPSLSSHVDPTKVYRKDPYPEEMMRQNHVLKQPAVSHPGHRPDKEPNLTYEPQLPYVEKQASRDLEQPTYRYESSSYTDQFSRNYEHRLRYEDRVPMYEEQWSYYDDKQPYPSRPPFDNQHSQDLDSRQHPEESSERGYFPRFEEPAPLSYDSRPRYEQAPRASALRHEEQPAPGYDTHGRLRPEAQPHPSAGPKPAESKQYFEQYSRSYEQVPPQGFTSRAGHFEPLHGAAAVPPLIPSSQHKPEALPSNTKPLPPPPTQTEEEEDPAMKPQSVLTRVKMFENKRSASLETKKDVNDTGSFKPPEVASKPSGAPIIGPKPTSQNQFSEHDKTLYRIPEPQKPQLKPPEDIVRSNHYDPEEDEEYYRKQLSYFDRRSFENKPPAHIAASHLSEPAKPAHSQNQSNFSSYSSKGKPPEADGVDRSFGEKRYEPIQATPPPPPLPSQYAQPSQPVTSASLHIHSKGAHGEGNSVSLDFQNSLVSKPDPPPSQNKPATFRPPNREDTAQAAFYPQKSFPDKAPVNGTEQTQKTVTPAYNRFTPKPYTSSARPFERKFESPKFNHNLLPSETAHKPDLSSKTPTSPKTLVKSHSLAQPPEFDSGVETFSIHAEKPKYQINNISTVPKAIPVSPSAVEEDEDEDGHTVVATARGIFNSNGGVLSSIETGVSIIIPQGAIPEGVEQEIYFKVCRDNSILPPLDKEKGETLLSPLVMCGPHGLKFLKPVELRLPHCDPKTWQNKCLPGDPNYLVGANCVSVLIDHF

partitioning (client fluorescence inside/outside ZO1 droplets) [1]: 25 fold
B1: cingulin (natural protein, UniProt Q9P2M7 1-1203, looked up)
chain: MEQAPNMAEPRGPVDHGVQIRFITEPVSGAEMGTLRRGGRRPAKDARASTYGVAVRVQGIAGQPFVVLNSGEKGGDSFGVQIKGANDQGASGALSSDLELPENPYSQVKGFPAPSQSSTSDEEPGAYWNGKLLRSHSQASLAGPGPVDPSNRSNSMLELAPKVASPGSTIDTAPLSSVDSLINKFDSQLGGQARGRTGRRTRMLPPEQRKRSKSLDSRLPRDTFEERERQSTNHWTSSTKYDNHVGTSKQPAQSQNLSPLSGFSRSRQTQDWVLQSFEEPRRSAQDPTMLQFKSTPDLLRDQQEAAPPGSVDHMKATIYGILREGSSESETSVRRKVSLVLEKMQPLVMVSSGSTKAVAGQGELTRKVEELQRKLDEEVKKRQKLEPSQVGLERQLEEKTEECSRLQELLERRKGEAQQSNKELQNMKRLLDQGEDLRHGLETQVMELQNKLKHVQGPEPAKEVLLKDLLETRELLEEVLEGKQRVEEQLRLRERELTALKGALKEEVASRDQEVEHVRQQYQRDTEQLRRSMQDATQDHAVLEAERQKMSALVRGLQRELEETSEETGHWQSMFQKNKEDLRATKQELLQLRMEKEEMEEELGEKIEVLQRELEQARASAGDTRQVEVLKKELLRTQEELKELQAERQSQEVAGRHRDRELEKQLAVLRVEADRGRELEEQNLQLQKTLQQLRQDCEEASKAKMVAEAEATVLGQRRAAVETTLRETQEENDEFRRRILGLEQQLKETRGLVDGGEAVEARLRDKLQRLEAEKQQLEEALNASQEEEGSLAAAKRALEARLEEAQRGLARLGQEQQTLNRALEEEGKQREVLRRGKAELEEQKRLLDRTVDRLNKELEKIGEDSKQALQQLQAQLEDYKEKARREVADAQRQAKDWASEAEKTSGGLSRLQDEIQRLRQALQASQAERDTARLDKELLAQRLQGLEQEAENKKRSQDDRARQLKGLEEKVSRLETELDEEKNTVELLTDRVNRGRDQVDQLRTELMQERSARQDLECDKISLERQNKDLKTRLASSEGFQKPSASLSQLESQNQLLQERLQAEEREKTVLQSTNRKLERKVKELSIQIEDERQHVNDQKDQLSLRVKALKRQVDEAEEEIERLDGLRKKAQREVEEQHEVNEQLQARIKSLEKDSWRKASRSAAESALKNEGLSSDEEFDSVYDPSSIASLLTESNLQTSSC

partitioning (client fluorescence inside/outside ZO1 droplets) [1]: 44 fold
B2: C-terminal tail of claudin-1 (peptide)
chain: SCPRKTTSYPTPRPYPKPAPSSGKDYV
modifications: also: CoA-DY647 on YBBR-tag, labelled with PPTase Sfp, tag not in given chain

B3: endogenous ZO2 with N-terminal mNeonGreen (CRISPR knock-in, MDCK-II) (natural protein, dog (endogenous in MDCK-II), UniProt Q95168 1-1174, looked up)
chain: MEELIWEQYTVTLQKDSKRGFGIAVSGGRDNPHFENGETSIVISDVLPGGPADGLLQENDRVVMVNGTPMEDVLHSFAVQQLRKSGKIAAIVVKRPRKVQLAPPQGSLPVDEDDRAFEVMDEFDGRSARSGYSERSRRSSHGGRSRSWEDSPERGRPHERAWSQERERSRGRSLERGLDHDDDYRRPRERSRGRSLERGLDHDDDYGRPGERSHGMSTDRGYDRGYDRGYDRGYDRTYSPEAEYGRRTQPDARHAGSRSRSREHLRSRSPSPELRGRPDHAGQPDSDRPIGVLLMKSKANEEYGLRLGSQIFIKQMTRTALATKDGNLHEGDIILKINGTVTENMSLTDARKLIEKSRGKLQLVVLRDSKQTLINIPSLNDSDSEIEDISEIESNRSFSPEERRQQYSDYDYHSSNEKLKERPNSREDMQNRWSRMGATPTPFKSMGDIASVVGTENSKEPRYQEEPPAPQPKAAPRTFLRPSPEDEAIYGPNTKMVRFKKGDSVGLRLAGGNDVGIFVAGIQEGTSAEQEGLQEGDQILKVNTQDFRGLVREDAVLYLLEIPKGEMVTILAQSRADVYRDILACGRGDSFFIRSHFECEKETPQSLAFSRGEVFRVVDTLYDGKLGHWLAVRIGNELEKGLIPNKSRAEQMASVQNAQRDNAGDRADFWRMRGQRSGMKKNLRKSREDLTAAVSVSTKFPAYERVLLREAGFKRPVVLFGPIADIALEKLANELPDLFQTAKTEPKDAGSEKSSGVVRLNTVRQIIEQDKHALLDVTPKAVDLLNYTQWFPIVIFFNPDSRQGVKTMRQRLNPTSNKSSRKLYDQANKLKKTCAHLFTATINLNSANDSWFGSLKDTIQHQQGEAVWVSEGKMEGMDDDPEDRMSYLTAMGADYLSCDSRLISDFEDTDGEGGAYTDNELDEPAEEPLVSSITRSSEPVQHEESIRKPSPEPRAQMRRAASRDQLRDSSPPPAFKPEPPKAKTQNREESFDISRSHDYKSNPSAVAGNEVSGASTRSCPPPIAAKPSFGRSILKPSTPVPSPESEEVGEGSEEQEGAPKSVLGKVKIFEKMDHKARLQRMQELQEAQNARIEIAQKHPDIYAVPIKTHKPDPGLSQHTSSRPPEPQKGPSRLYQDPRGSYGSDAEEEEYRQQLSEHSKRGYYSQPSRYRDTEL
stoichiometry N (FCS molecular brightness): 1.5

partitioning (client fluorescence inside/outside ZO1 droplets) [1]: 20 fold
B4: transcription factor ZONAB (natural protein)
chain: not shown

partitioning (client fluorescence inside/outside ZO1 droplets) [1]: 28 fold
B5: afadin (natural protein, UniProt P55196 1-1824, looked up)
chain: MSAGGRDEERRKLADIIHHWNANRLDLFEISQPTEDLEFHGVMRFYFQDKAAGNFATKCIRVSSTATTQDVIETLAEKFRPDMRMLSSPKYSLYEVHVSGERRLDIDEKPLVVQLNWNKDDREGRFVLKNENDAIPPKKAQSNGPEKQEKEGVIQNFKRTLSKKEKKEKKKREKEALRQASDKDDRPFQGEDVENSRLAAEVYKDMPETSFTRTISNPEVVMKRRRQQKLEKRMQEFRSSDGRPDSGGTLRIYADSLKPNIPYKTILLSTTDPADFAVAEALEKYGLEKENPKDYCIARVMLPPGAQHSDEKGAKEIILDDDECPLQIFREWPSDKGILVFQLKRRPPDHIPKKTKKHLEGKTPKGKERADGSGYGSTLPPEKLPYLVELSPGRRNHFAYYNYHTYEDGSDSRDKPKLYRLQLSVTEVGTEKLDDNSIQLFGPGIQPHHCDLTNMDGVVTVTPRSMDAETYVEGQRISETTMLQSGMKVQFGASHVFKFVDPSQDHALAKRSVDGGLMVKGPRHKPGIVQETTFDLGGDIHSGTALPTSKSTTRLDSDRVSSASSTAERGMVKPMIRVEQQPDYRRQESRTQDASGPELILPASIEFRESSEDSFLSAIINYTNSSTVHFKLSPTYVLYMACRYVLSNQYRPDISPTERTHKVIAVVNKMVSMMEGVIQKQKNIAGALAFWMANASELLNFIKQDRDLSRITLDAQDVLAHLVQMAFKYLVHCLQSELNNYMPAFLDDPEENSLQRPKIDDVLHTLTGAMSLLRRCRVNAALTIQLFSQLFHFINMWLFNRLVTDPDSGLCSHYWGAIIRQQLGHIEAWAEKQGLELAADCHLSRIVQATTLLTMDKYAPDDIPNINSTCFKLNSLQLQALLQNYHCAPDEPFIPTDLIENVVTVAENTADELARSDGREVQLEEDPDLQLPFLLPEDGYSCDVVRNIPNGLQEFLDPLCQRGFCRLIPHTRSPGTWTIYFEGADYESHLLRENTELAQPLRKEPEIITVTLKKQNGMGLSIVAAKGAGQDKLGIYVKSVVKGGAADVDGRLAAGDQLLSVDGRSLVGLSQERAAELMTRTSSVVTLEVAKQGAIYHGLATLLNQPSPMMQRISDRRGSGKPRPKSEGFELYNNSTQNGSPESPQLPWAEYSEPKKLPGDDRLMKNRADHRSSPNVANQPPSPGGKSAYASGTTAKITSVSTGNLCTEEQTPPPRPEAYPIPTQTYTREYFTFPASKSQDRMAPPQNQWPNYEEKPHMHTDSNHSSIAIQRVTRSQEELREDKAYQLERHRIEAAMDRKSDSDMWINQSSSLDSSTSSQEHLNHSSKSVTPASTLTKSGPGRWKTPAAIPATPVAVSQPIRTDLPPPPPPPPVHYAGDFDGMSMDLPLPPPPSANQIGLPSAQVAAAERRKREEHQRWYEKEKARLEEERERKRREQERKLGQMRTQSLNPAPFSPLTAQQMKPEKPSTLQRPQETVIRELQPQQQPRTIERRDLQYITVSKEELSSGDSLSPDPWKRDAKEKLEKQQQMHIVDMLSKEIQELQSKPDRSAEESDRLRKLMLEWQFQKRLQESKQKDEDDEEEEDDDVDTMLIMQRLEAERRARLQDEERRRQQQLEEMRKREAEDRARQEEERRRQEEERTKRDAEEKRRQEEGYYSRLEAERRRQHDEAARRLLEPEAPGLCRPPLPRDYEPPSPSPAPGAPPPPPQRNASYLKTQVLSPDSLFTAKFVAYNEEEEEEDCSLAGPNSYPGSTGAAVGAHDACRDAKEKRSKSQDADSPGSSGAPENLTFKERQRLFSQGQDVSNKVKASRKLTELENELNTK
